We go through 13 molecules from patent US12365732 (23ANDME, dated 2025).

Assay [1] addresses T1, recombinant hu-CD96 (M1-M503-polyHis) (human, UniProt P40200 22-519).
T1 construct: also called hu-CD96-his
T1 sequence: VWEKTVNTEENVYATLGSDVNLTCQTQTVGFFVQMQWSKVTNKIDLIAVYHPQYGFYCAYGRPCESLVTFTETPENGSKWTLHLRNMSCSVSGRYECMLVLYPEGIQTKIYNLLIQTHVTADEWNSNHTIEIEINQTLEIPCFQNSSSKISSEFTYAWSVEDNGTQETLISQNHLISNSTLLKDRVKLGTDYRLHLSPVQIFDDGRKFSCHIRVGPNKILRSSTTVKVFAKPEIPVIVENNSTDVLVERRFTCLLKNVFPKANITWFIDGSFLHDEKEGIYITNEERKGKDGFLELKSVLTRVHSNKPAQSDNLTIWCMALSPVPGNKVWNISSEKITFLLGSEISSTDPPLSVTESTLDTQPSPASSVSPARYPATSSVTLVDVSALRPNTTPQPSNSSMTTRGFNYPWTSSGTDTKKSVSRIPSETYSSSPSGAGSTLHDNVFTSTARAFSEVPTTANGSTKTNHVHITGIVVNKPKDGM
In words: ELISA, blocks hu-CD96-his binding to coated CD155-hFc. The protocol: CD96 binding of purified hybridoma antibodies: The hu-CD96 and cy-CD96 antigen binding ELISA was performed on the purified hybridoma antibodies. Briefly, 96-well MAXISORP® flat bottom plates (Thermo Fisher Scientific, Waltham, MA; Cat #439454) were coated overnight at 4° C. with 0.5 µg/mL of hu-CD96D1 D3-hFc and cynomolgus monkey CD96D1 D3-hFc in PBS. After removing the coating solution, unspecific binding was blocked by PBS containing 1% bovine serum albumin (blocking buffer) and incubation at room temperature for one hour. Plates were then washed three times with PBS and 0.05% TWEEN®-20 (wash buffer). Serial dilution of purified antibodies in PBS containing 0.5% BSA and 0.05% Tween 20 (ELISA buffer) was added to individual wells followed by incubation at room temperature for one hour with agitation. Plates were washed three times with wash buffer, then 100 µL/well of anti-mouse IgG-HRP (Thermo Fisher Scientific, Waltham, MA; Cat #626520) in ELISA buffer was added. […] Enzymatic color development was stopped with 50 µL/well of TMB stop solution (VWR/Avantor, Radnor, PA, USA; Cat #95059-200). Plates were analyzed with a SpectraMax i3X plate reader (Molecular Devices LLC, San Jose, CA, USA) at 450 nm.
CD155 receptor blocking of purified hybridoma antibodies: Human CD155 blocking ELISA was performed on purified hybridoma antibodies following the same protocol as described for CD96 (above), except that serial dilution of purified antibodies 50 µL/well (starting at 1 µM, 1:5 dilution) in assay buffer was added into the reaction.
(In general: In an ELISA, binding on a coated surface is turned into a signal by an enzyme label.)

The target of the next assay is T2, hu-CD96 Fc (human, biotinylated in Table 16).
T2 construct: also called biotinylated hu-CD96-Fc
In words: SPR 25C, CD96-Fc on Protein A, Fab analyte. The protocol:
Briefly, hu-CD96 Fc and cy-CD96 Fc were diluted at 10 µg/mL in HBS-P buffer (0.01 M HEPES pH 7.4, 0.15 M NaCl, 0.005% Surfactant P20) and applied to the Protein A chip at 30 µL/min flow rate for 60 s in flow cell 2 (FC2). Then flow 3-fold serial dilutions of mAb1.v7 Fab variants in HBS-P buffer (0.01 M HEPES pH 7.4, 0.15 M NaCl, 0.005% surfactant P20) from (0.4 nM) to high (1000 nM) were injected (flow rate: 30 µL/min) at 25° C. to both flow cell 1 (FC1) and flow cell 2 (FC2). The sensorgram was recorded and subject to reference and buffer subtraction before evaluating by BIA- CORE® 8K Evaluation Software (version 1.1.1.7442). Association rates ($kon$) and dissociation rates ($koff$) were calculated using a simple one-to-one Langmuir binding model. The equilibrium dissociation constant (K_D) was calculated as the ratio of $koff/kon$, and the values determined for the mAb1.v7 and the 5 Fab variants are summarized in Table 10 (below).

In assay [2] the target is T3, cynomolgus monkey CD96 on cynomolgus monkey PBMCs (cynomolgus monkey, UniProt A0A2K5TWV6 22-569).
T3 construct: whole, on cells
T3 sequence: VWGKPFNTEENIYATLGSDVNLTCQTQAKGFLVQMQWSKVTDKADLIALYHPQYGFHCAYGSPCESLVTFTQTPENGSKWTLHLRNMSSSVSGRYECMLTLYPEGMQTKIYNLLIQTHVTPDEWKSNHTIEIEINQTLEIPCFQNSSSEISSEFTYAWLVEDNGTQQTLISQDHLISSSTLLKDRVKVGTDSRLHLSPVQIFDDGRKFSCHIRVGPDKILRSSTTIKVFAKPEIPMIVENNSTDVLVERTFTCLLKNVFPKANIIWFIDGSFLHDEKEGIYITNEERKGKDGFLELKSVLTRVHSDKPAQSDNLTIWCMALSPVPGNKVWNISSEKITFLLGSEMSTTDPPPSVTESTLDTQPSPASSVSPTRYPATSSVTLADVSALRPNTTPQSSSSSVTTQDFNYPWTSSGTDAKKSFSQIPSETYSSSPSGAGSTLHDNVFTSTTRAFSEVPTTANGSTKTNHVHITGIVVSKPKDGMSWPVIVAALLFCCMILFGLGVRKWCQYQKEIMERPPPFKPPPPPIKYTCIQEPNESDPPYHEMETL
In words: FACS, Ab 0.64 nM. The method, then: The ability of the anti-CD96 antibodies to bind primary immune cells from human and cynomolgus monkey with lower level of receptor expression was measured. Human PBMCs (StemCell Technologies, catalog #70025) and cynomolgus monkey PBMCs (Primate Biologicals, catalog #CM-MC) were incubated with human TruStain FcX (Biolegend, catalog #422302) for 10 minutes at 4° C., followed by incubation with an anti-CD96 antibody for 20 minutes at 4° C. Cells were washed and the anti-CD96 antibody binding was detected by incubation with anti-mouse IgG-PE (Thermo Fisher, catalog #M30204) or anti-human IgG (Fab) 2-PE (Thermo Fisher, catalog #H10104) for 20 minutes at 4° C. Cells were washed, and immune subtypes were labeled with anti-CD3 (BD, catalog #557705), anti-CD4 (Biolegend, catalog #317424) and anti-CD8 (BD, catalog #557760) for 20 minutes at 4° C. Cell binding was analyzed by flow cytometry with a CytoFLEX (Beckman Coulter). Binding curves were calculated as a percentage of cells positive for bound antibody in the cell type of interest.
On the technique in general: In flow cytometry, cells or beads pass a laser one at a time.

Numbering of substitutions follows the chain as printed. Numbers in names are those of the source.

B1: 10G1 (clone 10G1.3G8), purified hybridoma antibody (antibody, V domains shown)
VH: QIQLVQSGPELKKPGETVKISCKASGYPFTTYGMSWVKQAPGKGLKWMGWINTDSGVPTYADDFKGRFAFSLETSANTAYLQINSLKNEDAATYFCARNIYYGWGNFDYWGQGTILTVSS
VL: DILMTQSPTTLSVTPGETVSLSCRASQDIYRNLHWYQQKSQGTPRLLIKHASDSISGIPSRFTGSGSGTDFTLSINSVKPEDEGIYYCLQGYSMPYTFGGGTKLEIK
notes: murine hybridoma IgG
For B1, the IC50 (usually the concentration that inhibits the measured activity by half) in assay [1] stood at 2.59 nM.

B2: 7E5, purified hybridoma antibody (antibody, V domains shown)
VH: QVQLKESGPGLVAPSQSLSIICTVSGFSLTNYGIHWIRQPPGKGLEWLGIIWAGGSTNYNSALMSRLTISKDNSKSQVFLKMNSLQTNDTAIYYCARVSMMGFAYWGQGTLVTVSA
VL: QAVVTQESALTTSPGETVTLTCRSSTGAVTTSNYANWVQEKPDHLFTGLIGGTNNRAPGVPARFSGSLIGDKAALTITGAQTEDEAIYFCSLWYGSHWVFGGGTKLTVL
notes: murine hybridoma IgG
Take B2: the IC50 in assay [1] was determined as 2.15 nM.

B3: mAb1.v7 Fab (Fab, V domains shown)
VH: EVQLVQSGAEVKKPGASVKVSCKASGFTFTNNWMHWVRQAPGQGLEWIGMIHPNSGITNINEKFKNRVTMTTDTSTSTAYMELRSLRSEDTAVYYCRSDGTYEGYFDYWGQGTLVTVSS
VL: DIQLTQSPSSLSASVGDRVTITCKASQNVGTAIVWYQQKPGKAPKVLIYSASTRYTGVPSRFSGSGSGTDFTLTISSLQPEDFATYYCQQYSSSPLTFGQGTKVEIK
Consider B3, for which, in the assay with hu-CD96 Fc, binding was put at a Kd of 44.6 nM; the koff (in general, a measure of how fast the partners let go of each other) came to 0.000817 s⁻¹; the kon – broadly, a measure of how fast the partners come together – is 18300 M⁻¹ s⁻¹.

B4: mAb1.v7.NGS9 IgG (antibody, V domains shown)
VH: B3 VH with W33F, P53A, T101V
VL: DIQLTQSPSSLSASVGDRVTITCKASQNVGTAIVWYQQKPGKAPKVLIYSASTRYTGVPSRFSGSGSGTDFTLTISSLQPEDFATYYCQQYSSSPLTFGQGTKVEIKG
notes: human IgG1 N297G
With B4, the “% positive” value in assay [2] turned out to be 71%.

B5: mAb1.v7.16 Fab (Fab, V domains shown)
VH: B3 VH with M34R, T101V
VL: B3 VL
notes: also called M34R/T97V
In the case of B5, in the assay with hu-CD96 Fc, the Kd (usually the concentration at which binding is half-saturated) stood at 0.38 nM, the koff is 2.81e-06 s⁻¹ and the kon was found to be 7380 M⁻¹ s⁻¹.

B6: mAb1.v7.NGS10 IgG (antibody, V domains shown)
VH: B3 VH with W33F, M50F, P53A, T101I
VL: B4 VL
notes: human IgG1 N297G
As for B6, the “% positive” value in assay [2] turned out to be 73.1%.

B7: mAb1.v7.48 Fab (Fab, V domains shown)
VH: B3 VH with N32R, P53H, T101V
VL: B3 VL
notes: also called N32R/P52aH/T97V
As to B7, in the assay with hu-CD96 Fc, binding was put at a Kd of 0.795 nM, the koff worked out at 1.26e-05 s⁻¹ and the kon stood at 15900 M⁻¹ s⁻¹.

B8: mAb1.v7.NGS11 IgG (antibody, V domains shown)
VH: B3 VH with W33F, M50F, P53A, T101V
VL: B4 VL
notes: human IgG1 N297G
For B8, the “% positive” value in assay [2] was determined as 74.3%.

B9: mAb1.v7.70 Fab (Fab, V domains shown)
VH: B3 VH with N32R, P53A, T101V
VL: B3 VL
notes: also called N32R/P52aA/T97V
In the assay with hu-CD96 Fc, B9 had a Kd of 1.73 nM, an off-rate constant (koff) of 2.74e-05 s⁻¹ and a kon of 15900 M⁻¹ s⁻¹.

B10: mAb1.v7.9 Fab (Fab, V domains shown)
VH: B3 VH with M34R, P53M, T101V
VL: B3 VL
notes: also called M34R/P52aM/T97V
Take B10: in the assay with hu-CD96 Fc, the affinity, expressed as Kd, was 5.05 nM; the off-rate constant (koff) was 7.02e-05 s⁻¹; the kon came out at 13900 M⁻¹ s⁻¹.

B11: mAb1.v7.2 Fab (Fab, V domains shown)
VH: B3 VH with M34R, P53F, T101V
VL: B3 VL
notes: also called M34R/P52aF/T97V
In the assay with hu-CD96 Fc, B11 showed a Kd of 0.67 nM, an off-rate constant (koff) of 1.06e-05 s⁻¹ and an association rate constant (kon) of 15800 M⁻¹ s⁻¹.

B12: 9H4, purified hybridoma antibody (antibody, V domains shown)
VH: EVQLLETGGGLVKSGGSLKLSCAASGFTFSDYYMYWVRQTPEKRLEWVAAISDDGTYTYYPDSVKGRFTISRDNANNYLYLQMSSLKSEDTAIYYCAKAGSYDYFDVWGAGTTVTVSS
VL: DIVLTQSPASLAVSLGQRAIISCKASQSVTFADTGLMHWYQQKPGQQPKLLIYRASNLEVGVPTRFSGSGSGTDFTLNIHPVEEEDVATYYCQQSREYPWTFGGGTKLEIK
notes: murine hybridoma IgG
B12: the IC50 in assay [1] was determined as 2.23 nM.

B13: h10G1 IgG (humanized 10G1) (antibody, V domains shown)
VH: EIQLVQSGSELKKPGASVKVSCKASGYPFTTYGMSWVRQAPGQGLEWMGWINTDSGVPTYADDFKGRFVFSLDTSVSTAYLQISSLKAEDTAVYFCARNIYYGWGNFDYWGQGTLVTVSS
VL: EIVMTQSPDFQSVTPKEKVTITCRASQDIYRNLHWYQQKPDQTPKLLIKHASDSISGIPSRFSGSGSGTDFTLTINSLEAEDAAAYYCLQGYSMPYTFGGGTKVEIKG
notes: human IgG1 N297G
On to B13, for which the “% positive” value in assay [2] stood at 51.2%.
